Consider two molecules from patent US20080038775A1 (published 2008).

One may read the IC50 as the concentration needed to halve the response being measured. Low readings indicate higher potency, high ones lower potency.

The target of experiment [1] is LRP5 protein (form not named at the place) (UniProt O75197). As to the kind of experiment: cell-based or functional assay.
For experiment [2], the target named is T1, LRP5prop3,4LBD V5His (propellers 3 and 4 and ligand binding domain of LRP5, amino acids 642 to 1376 of … (UniProt O75197 642-1376)).
T1 construct: range 642-1376; Secreted from HEK293T cells co-transfected with RAP; also called LRP5VHis prop3,4; not shown: V5 (and His) tag from the pcDNA3.1/V5 expression vector
T1 sequence (looked up): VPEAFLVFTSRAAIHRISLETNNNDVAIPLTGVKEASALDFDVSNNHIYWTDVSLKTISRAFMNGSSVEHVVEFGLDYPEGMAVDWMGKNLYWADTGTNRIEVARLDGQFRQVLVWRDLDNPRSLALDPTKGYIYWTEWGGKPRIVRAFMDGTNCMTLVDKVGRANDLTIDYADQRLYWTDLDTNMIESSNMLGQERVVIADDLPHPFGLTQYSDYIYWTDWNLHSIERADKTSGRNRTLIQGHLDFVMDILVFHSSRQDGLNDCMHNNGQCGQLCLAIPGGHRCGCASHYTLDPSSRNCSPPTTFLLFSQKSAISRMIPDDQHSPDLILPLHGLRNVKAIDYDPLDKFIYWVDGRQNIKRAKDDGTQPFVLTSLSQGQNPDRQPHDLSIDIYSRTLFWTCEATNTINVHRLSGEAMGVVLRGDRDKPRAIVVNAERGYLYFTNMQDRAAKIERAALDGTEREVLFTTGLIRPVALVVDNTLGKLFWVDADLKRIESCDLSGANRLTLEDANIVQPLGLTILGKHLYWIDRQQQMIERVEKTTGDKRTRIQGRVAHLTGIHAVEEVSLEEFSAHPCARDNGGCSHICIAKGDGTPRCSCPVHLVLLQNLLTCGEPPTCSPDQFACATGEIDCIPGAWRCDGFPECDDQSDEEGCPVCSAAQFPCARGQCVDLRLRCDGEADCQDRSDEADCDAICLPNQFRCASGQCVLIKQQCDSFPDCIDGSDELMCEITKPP
As to the kind of experiment: TR-FRET (anti-V5-Eu / anti-myc-Cy5), apparent Kd, concentrations of Dkk1 and LRP5prop34LBD varied, 50 mM PIPES pH 6.5. Here is the method: The time resolved fluorescence resonance energy transfer (TR-FRET) platform was chosen to develop an assay for Dkk1-LRP5prop34LBD interaction because the TR-FRET assay is highly sensitive, easy to set up and capable of detecting weak interactions. For this assay, two labeled molecules are added to the system. If an interaction occurs, the labels are brought into close proximity and energy transfer occurs to release energy at specific wavelengths that can be detected. For detection of interaction between Dkk1 and LRP5prop34LBD, the Dkk1 (tagged with myc) is effectively labeled using a Cy5 labeled monoclonal anti-myc antibody. […] Cy5 absorbs at 615 nm and emits energy at 665 nm which is detected. The measurement was conducted on a Wallac EnVision 2100 Multilabel Reader from PerkinElmer Life Science. […] The interaction between Dkk1 and LRP5prop3,4LBD is expressed as the ratio of fluorescence intensity at 665 nm over 615 nm, which represents the energy transfer from the europium to Cy5 dye. […]
Kdapp Determination. The observed Kdapp was determined by varying concentrations of Dkk1 and LRP5prop34LBD in the reaction mixture containing 50 mM PIPES (pH 6.5), 0.5 mM DTT, 0.01% Tween-20, 0.5 nM V5-mAb-Eu, and 15 nM ,myc-Ab-Cy5. […] Kd-value determined here is a Kdapp-value as the antibody concentration is limiting in the assay. […]
On the technique in general: In TR-FRET formats the signal depends on donor and acceptor labels being close together.

For experiment [3], the target named is T1, LRP5prop3,4LBD V5His (propellers 3 and …). As to the kind of experiment: TR-FRET competition; untagged R&D Dkk1 titrated against myc-tagged Dkk1 binding to LRP5prop34LBD. Here is the method:
The time resolved fluorescence resonance energy transfer (TR-FRET) platform was chosen to develop an assay for Dkk1-LRP5prop34LBD interaction because the TR-FRET assay is highly sensitive, easy to set up and capable of detecting weak interactions. For this assay, two labeled molecules are added to the system. If an interaction occurs, the labels are brought into close proximity and energy transfer occurs to release energy at specific wavelengths that can be detected. For detection of interaction between Dkk1 and LRP5prop34LBD, the Dkk1 (tagged with myc) is effectively labeled using a Cy5 labeled monoclonal anti-myc antibody. The LRP5prop34LBD (tagged with V5) is effectively labeled using a Europium labeled monoclonal anti-V5 antibody. Europium is excited at 340 nm and re-emits energy at 615 nm. Cy5 absorbs at 615 nm and emits energy at 665 nm which is detected. The measurement was conducted on a Wallac EnVision 2100 Multilabel Reader from PerkinElmer Life Science. […] The interaction between Dkk1 and LRP5prop3,4LBD is expressed as the ratio of fluorescence intensity at 665 nm over 615 nm, which represents the energy transfer from the europium to Cy5 dye. […]
Dkk1 without a myc tag was purchased from R&D Inc. and is a Dkk1 synthesized in a baculovirus/insect cell system. […] The data were analyzed with Grafit 5 (Erithacus Software).

B1: Dkk1mycHis (wild-type human Dkk1 with C-terminal c-myc and His6 tags, secreted by HEK293T cells; used purified or as conditioned media) (ligand)
chain: ATLNSVLNSNAIKNLPPPLGGAAGHPGSAVSAAPGILYPGGNKYQTIDNYQPYPCAEDEECGTDEYCASPTRGGDAGVQICLACRKRRKRCMRHAMCCPGNYCKNGICVSSDQNHFRGEIEETITESFGNDHSTLDGYSRRTTLSSKMYHTKGQEGSVCLRSSDCASGLCCARHFWSKICKPVLKEGQVCTKHRRKGSHGLEIFQRCYCGEGLSCRIQKDHHQASNSSRLHTCQRHSRGPFEQKLISEEDLNMHTGHHHHHH
modifications: N-linked glycosylation (mammalian pattern); 125I-labelled by the chloramine-T method only in the radioligand assay of Example 10
notes: Secreted protein; also called WT; wild-type Dkk1
Regarding B1, the activity in the TCF luciferase assay compared with baculovirus Dkk1 (FIG. 4) (% greater activity than R&D Systems Dkk1) in experiment [1] was 25. Besides, the Kd in experiment [2] is 11.8 nM.

B2: Recombinant human Dkk1 from R&D Systems (Cat. No. 1096-DK/CF), baculovirus/insect cell derived (ligand, UniProt O94907 32-266, looked up)
chain: TLNSVLNSNAIKNLPPPLGGAAGHPGSAVSAAPGILYPGGNKYQTIDNYQPYPCAEDEECGTDEYCASPTRGGDAGVQICLACRKRRKRCMRHAMCCPGNYCKNGICVSSDQNHFRGEIEETITESFGNDHSTLDGYSRRTTLSSKMYHTKGQEGSVCLRSSDCASGLCCARHFWSKICKPVLKEGQVCTKHRRKGSHGLEIFQRCYCGEGLSCRIQKDHHQASNSSRLHTCQRH
modifications: 125I-labelled in the radioligand assay of Example 10 only
notes: Bought protein; no myc tag; also called R&D Dkk1; R&D Systems Dkk1
B2 yielded an IC50 in experiment [3] of 1.42 nM.
